# Laboratory results from article PMC6447637, “Ca^2+-dependent regulation of sodium channels NaV1.4 and NaV1.5 is controlled by the post-IQ motif” (Nature Communications, 2019).
# B1: NaV1.4 CTerm Long (residues 1599-1764) (domain or fragment)
# chain: ENFNVATEESSEPLGEDDFEMFYETWEKFDPDATQFIAYSRLSDFVDTLQEPLRIAKPNKIKLITLDLPMVPGDKIHCLDILFALTKEVLGDSGEMDALKQTMEEKFMAANPSKVSYEPITTTLKRKHEEVCAIKIQRAYRRHLLQRSMKQASYMYRHSHDGSGDD
# notes: The text layer of the ITC plots in D1 (p5, p9); not shown: GST, N-terminal, kept
# B2: NaV1.4 CTerm Short (residues 1599–1754), freed of CaM for ITC (domain or fragment)
# chain: ENFNVATEESSEPLGEDDFEMFYETWEKFDPDATQFIAYSRLSDFVDTLQEPLRIAKPNKIKLITLDLPMVPGDKIHCLDILFALTKEVLGDSGEMDALKQTMEEKFMAANPSKVSYEPITTTLKRKHEEVCAIKIQRAYRRHLLQRSMKQASYMYLTRAAAS
# notes: additional 7 residues at the C-terminus of the construct; source: E. coli BL21-CodonPlus RIL, co-expressed with CaM, purified (Glutathione Sepharose; CaM removed by a TFP and Ca2+ wash; eluted with glutathione; 70% pure)
# B3: NaV1.4 CTerm Long (residues 1599–1764), freed of CaM for ITC (domain or fragment)
# chain: B1 chain
# notes: H. sapiens NaV1.4 (SCN4A) C-terminal domain, a.a; the protein may have carried GST in the titrations; source: E. coli BL21-CodonPlus RIL, co-expressed with CaM, purified (Glutathione Sepharose; CaM removed by a TFP and Ca2+ wash; eluted with glutathione; 70% pure)
# Experiments:
# Conditions in all cases: both partners purified
# [1] = biological target: T1, calmodulin (full-length mammalian, CALM2) (R. norvegicus, UniProt P0DP30 1-149); assay: ITC; CaM species in the syringe, NaV CTerm in the cell; Ca2+-saturating: 20 mM MOPS, 150 mM NaCl, 1 mM MgCl2, 50 µM EGTA with 1 mM CaCl2; VP-ITC; fitted to a single binding site per monomer, error of the fit; one replicate
# T1 construct: Full-length mammalian calmodulin (R. norvegicus CALM2; 100% amino acid identity with H. sapiens CaM), 148 residues; apo CaM and (Ca2+)4-CaM are the same protein without and with 1 mM CaCl2; the two conditions are two assays; also called CaM; WT CaM; source: E. coli BL21-CodonPlus RIL, purified (two Phenyl FF columns)
# [2] = biological target: T1, calmodulin (full-length mammalian, …); assay: ITC; CaM species in the syringe, NaV CTerm in the cell; Ca2+-free: 20 mM MOPS, 150 mM NaCl, 1 mM MgCl2, 50 µM EGTA; VP-ITC; fitted to a single binding site per monomer, error of the fit; one replicate
# [3] = biological target: T2, calmodulin (full-length mammalian calmodulin, R. norvegicus CALM2) (R. norvegicus, UniProt P0DP30 1-149); assay: ITC; Ca2+-saturating: CTerm (2–25 µM) in the sample cell, CaM, CaM12 or CaM34 (30–1000 µM) as titrant; 20 mM MOPS, 150 mM NaCl, 1 mM MgCl2, 50 µM EGTA with 1 mM CaCl2; VP-ITC, single binding site fit, one replicate
# T2 construct: full-length mammalian calmodulin, R. norvegicus CALM2, 100% amino acid identity with H. sapiens CaM, in pET24b; Ca2+-free (apo, 50 µM EGTA) and Ca2+-saturated ((Ca2+)4, 1 mM CaCl2) states are the same molecule; the assays tell them apart; also called CaM; CaM WT; source: E. coli BL21-CodonPlus RIL; for ITC expressed alone and purified (two Phenyl FF columns); for crystals co-expressed and …
# [4] = biological target: T2, calmodulin (full-length mammalian …); assay: ITC; Ca2+-free: CTerm (2–25 µM) in the sample cell, CaM (30–1000 µM) as titrant; 20 mM MOPS, 150 mM NaCl, 1 mM MgCl2, 50 µM EGTA; VP-ITC, single binding site fit, one replicate
binder,measurement,setting,value
B1,Ka,[1],3.63e+06 M⁻¹
same,Ka,[2],5.85e+07 M⁻¹
B2,Kd,[3],305 nM
same,Kd,[4],114 nM
B3,Kd,[3],275 nM
same,Kd,[4],17 nM
